For eight molecules, Jurkat-Vy9Vo2 TCR MOP activation, dose and increase in CD107ab expression on Vγ9Vδ2 T cells co-cultured with SKOV3 cells, 0.1 nM results are on record in patent publication US20260265379A1.

To fix the notation:
B1: bsAb010 (bispecific antibody)
heavy: QVQLVQSGAEVKKPGASVKLSCKASGYIFTRYYMYWVKQRPGQGLEWIGEINPNNGGTKFNEKFKNRATLTVDKSISTAYMELSRLRSDDTAVYYCSREDDYDGTPFAMDYWGQGTLVTVSSASTKGPSVFPLAPSSKSTSGGTAALGCLVKDYFPEPVTVSWNSGALTSGVHTFPAVLQSSGLYSLSSVVTVPSSSLGTQTYICNVNHKPSNTKVDKRVEPKSCDKTHTCPPCPAPEFEGGPSVFLFPPKPKDTLMISRTPEVTCVVVDVSHEDPEVKFNWYVDGVEVHNAKTKPREEQYNSTYRVVSVLTVLHQDWLNGKEYKCKVSNKALPASIEKTISKAKGQPREPQVYTLPPSREEMTKNQVSLTCLVKGFYPSDIAVEWESNGQPENNYKTTPPVLDSDGSFFLYSKLTVDKSRWQQGNVFSCSVMHEALHNHYTQKSLSLSPG
light: not shown
B2: bsAb014 (bispecific antibody)
heavy: B1 heavy
light: not shown
B3: bsAb025 (bispecific antibody)
heavy: QVQLVQSGVEVKKPGASVKVSCKASGYTFTNYYMYWVRQAPGQGLEWMGGINPSNGGTNFNEKFKNRVTLTTDSSTTTAYMELKSLQFDDTAVYYCARRDYRFDMGFDYWGQGTTVTVSSASTKGPSVFPLAPSSKSTSGGTAALGCLVKDYFPEPVTVSWNSGALTSGVHTFPAVLQSSGLYSLSSVVTVPSSSLGTQTYICNVNHKPSNTKVDKKVEPKSCDKTHTGGSSGSGSGSTGTSSSGTGTSAGTTGTSASTSGSGSGGGGGSGGGGSAGGEIVLTQSPATLSLSPGERATLSCRASKGVSTSGYSYLHWYQQKPGQAPRLLIYLASYLESGVPARFSGSGSGTDFTLTISSLEPEDFAVYYCQHSRDLPLTFGGGTKVEIKRTVAAPSVFIFPPSDEQLKSGTASVVCLLNNFYPREAKVQWKVDNALQSGNSQESVTEQDSKDSTYSLSSTLTLSKADYEKHKVYACEVTHQGLSSPVTKSFNRGECGGGGSGGGGSGGGGSGGGGSQVQLVQSGAEVKKPGASVKLSCKASGYIFTRYYMYWVKQRPGQGLEWIGEINPNNGGTKFNEKFKNRATLTVDKSISTAYMELSRLRSDDTAVYYCSREDDYDGTPFAMDYWGQGTLVTVSSASTKGPSVFPLAPSSKSTSGGTAALGCLVKDYFPEPVTVSWNSGALTSGVHTFPAVLQSSGLYSLSSVVTVPSSSLGTQTYICNVNHKPSNTKVDKRVEPKSCDKTHTCPPCPAPEFEGGPSVFLFPPKPKDTLMISRTPEVTCVVVDVSHEDPEVKFNWYVDGVEVHNAKTKPREEQYNSTYRVVSVLTVLHQDWLNGKEYKCKVSNKALPASIEKTISKAKGQPREPQVYTLPPSREEMTKNQVSLTCLVKGFYPSDIAVEWESNGQPENNYKTTPPVLDSDGSFFLYSKLTVDKSRWQQGNVFSCSVMHEALHNHYTQKSLSLSPG
light: not shown
B4: bsAb069 (bispecific antibody, not shown: small tags and cut ends; a dimerising Fc or GST)
heavy 1: EVQLVESGGGLVQPGGSLRLSCAASGFTFSRYWMSWVRQAPGKGLEWVANIKQDGSEKYYVDSVKGRFTISRDNAKNSLYLQMNSLRAEDTAVYYCAREGGWFGELAFDYWGQGTLVTVSS
heavy 2: DIQMTQSPSSLSASVGDRVTITCHASQNINVWLSWYQQKPGKAPKLLIYKASNLHTGVPSRFTGSGSGTDFTFTISSLQPEDIATYYCQQGQTYPYTFGQGTKLEIKGGGGSGGGGSGGGGSGGGGSQVQLVQSGAEVKKPGASVKLSCKASGYIFTRYYMYWVKQRPGQGLEWIGEINPNNGGTKFNEKFKNRATLTVDKSISTAYMELSRLRSDDTAVYYCSREDDYDGTPFAMDYWGQGTLVTVSSGGGGSGGGGSGGGGSGGGGS
light: EIVLTQSPGTLSLSPGERATLSCRASQRVSSSYLAWYQQKPGQAPRLLIYDASSRATGIPDRFSGSGSGTDFTLTISRLEPEDFAVYYCQQYGSLPWTFGQGTKVEIKRTVAAPSVFIFPPSDEQLKSGTASVVCLLNNFYPREAKVQWKVDNALQSGNSQESVTEQDSKDSTYSLSSTLTLSKADYEKHKVYACEVTHQGLSSPVTKSFNRGECGGGGSGGGGSGGGGSGGGGSQVQLVQSGAEVKKPGASVKLSCKASGYIFTRYYMYWVKQRPGQGLEWIGEINPNNGGTKFNEKFKNRATLTVDKSISTAYMELSRLRSDDTAVYYCSREDDYDGTPFAMDYWGQGTLVTVSSGGGGSGGGGSGGGGSGGGGSDIQMTQSPSSLSASVGDRVTITCHASQNINVWLSWYQQKPGKAPKLLIYKASNLHTGVPSRFTGSGSGTDFTFTISSLQPEDIATYYCQQGQTYPYTFGQGTKLEIK
B5: bsAb070 (bispecific antibody, not shown: small tags and cut ends; a dimerising Fc or GST)
heavy 1: B4 heavy 1
heavy 2: QVQLVQSGAEVKKPGASVKLSCKASGYIFTRYYMYWVKQRPGQGLEWIGEINPNNGGTKFNEKFKNRATLTVDKSISTAYMELSRLRSDDTAVYYCSREDDYDGTPFAMDYWGQGTLVTVSSGGGGSGGGGSGGGGSGGGGSDIQMTQSPSSLSASVGDRVTITCHASQNINVWLSWYQQKPGKAPKLLIYKASNLHTGVPSRFTGSGSGTDFTFTISSLQPEDIATYYCQQGQTYPYTFGQGTKLEIKGGGGSGGGGSGGGGSGGGGS
light: EIVLTQSPGTLSLSPGERATLSCRASQRVSSSYLAWYQQKPGQAPRLLIYDASSRATGIPDRFSGSGSGTDFTLTISRLEPEDFAVYYCQQYGSLPWTFGQGTKVEIKRTVAAPSVFIFPPSDEQLKSGTASVVCLLNNFYPREAKVQWKVDNALQSGNSQESVTEQDSKDSTYSLSSTLTLSKADYEKHKVYACEVTHQGLSSPVTKSFNRGECGGGGSGGGGSGGGGSGGGGSDIQMTQSPSSLSASVGDRVTITCHASQNINVWLSWYQQKPGKAPKLLIYKASNLHTGVPSRFTGSGSGTDFTFTISSLQPEDIATYYCQQGQTYPYTFGQGTKLEIKGGGGSGGGGSGGGGSGGGGSQVQLVQSGAEVKKPGASVKLSCKASGYIFTRYYMYWVKQRPGQGLEWIGEINPNNGGTKFNEKFKNRATLTVDKSISTAYMELSRLRSDDTAVYYCSREDDYDGTPFAMDYWGQGTLVTVSS
B6: bsAb022 (bispecific antibody)
heavy: QVQLVQSGVEVKKPGASVKVSCKASGYTFTNYYMYWVRQAPGQGLEWMGGINPSNGGTNFNEKFKNRVTLTTDSSTTTAYMELKSLQFDDTAVYYCARRDYRFDMGFDYWGQGTTVTVSSGGGGSGGGGSGGGGSGGGGSEIVLTQSPATLSLSPGERATLSCRASKGVSTSGYSYLHWYQQKPGQAPRLLIYLASYLESGVPARFSGSGSGTDFTLTISSLEPEDFAVYYCQHSRDLPLTFGGGTKVEIKGGGGSGGGGSGGGGSGGGGSQVQLVQSGAEVKKPGASVKLSCKASGYIFTRYYMYWVKQRPGQGLEWIGEINPNNGGTKFNEKFKNRATLTVDKSISTAYMELSRLRSDDTAVYYCSREDDYDGTPFAMDYWGQGTLVTVSSASTKGPSVFPLAPSSKSTSGGTAALGCLVKDYFPEPVTVSWNSGALTSGVHTFPAVLQSSGLYSLSSVVTVPSSSLGTQTYICNVNHKPSNTKVDKRVEPKSCDKTHTCPPCPAPEFEGGPSVFLFPPKPKDTLMISRTPEVTCVVVDVSHEDPEVKFNWYVDGVEVHNAKTKPREEQYNSTYRVVSVLTVLHQDWLNGKEYKCKVSNKALPASIEKTISKAKGQPREPQVYTLPPSREEMTKNQVSLTCLVKGFYPSDIAVEWESNGQPENNYKTTPPVLDSDGSFFLYSKLTVDKSRWQQGNVFSCSVMHEALHNHYTQKSLSLSPG
light: not shown
B7: bsAb018 (bispecific antibody)
heavy: EIVLTQSPATLSLSPGERATLSCRASKGVSTSGYSYLHWYQQKPGQAPRLLIYLASYLESGVPARFSGSGSGTDFTLTISSLEPEDFAVYYCQHSRDLPLTFGGGTKVEIKGGGGSGGGGSGGGGSGGGGSQVQLVQSGVEVKKPGASVKVSCKASGYTFTNYYMYWVRQAPGQGLEWMGGINPSNGGTNFNEKFKNRVTLTTDSSTTTAYMELKSLQFDDTAVYYCARRDYRFDMGFDYWGQGTTVTVSSGGGGSGGGGSGGGGSGGGGSQVQLVQSGAEVKKPGASVKLSCKASGYIFTRYYMYWVKQRPGQGLEWIGEINPNNGGTKFNEKFKNRATLTVDKSISTAYMELSRLRSDDTAVYYCSREDDYDGTPFAMDYWGQGTLVTVSSASTKGPSVFPLAPSSKSTSGGTAALGCLVKDYFPEPVTVSWNSGALTSGVHTFPAVLQSSGLYSLSSVVTVPSSSLGTQTYICNVNHKPSNTKVDKRVEPKSCDKTHTCPPCPAPEFEGGPSVFLFPPKPKDTLMISRTPEVTCVVVDVSHEDPEVKFNWYVDGVEVHNAKTKPREEQYNSTYRVVSVLTVLHQDWLNGKEYKCKVSNKALPASIEKTISKAKGQPREPQVYTLPPSREEMTKNQVSLTCLVKGFYPSDIAVEWESNGQPENNYKTTPPVLDSDGSFFLYSKLTVDKSRWQQGNVFSCSVMHEALHNHYTQKSLSLSPG
light: not shown
B8: ICT01 (antibody, V domains shown)
VH: QVQLVQSGAEVKKPGASVKLSCKASGYIFTRYYMYWVKQRPGQGLEWIGEINPNNGGTKFNEKFKNRATLTVDKSISTAYMELSRLRSDDTAVYYCSREDDYDGTPFAMDYWGQGTLVTVSS
VL: DIQMTQSPSSLSASVGDRVTITCHASQNINVWLSWYQQKPGKAPKLLIYKASNLHTGVPSRFTGSGSGTDFTFTISSLQPEDIATYYCQQGQTYPYTFGQGTKLEIK

Chain of BTN3A expressed at the cell surface (human), O00481 (O00481 30-513): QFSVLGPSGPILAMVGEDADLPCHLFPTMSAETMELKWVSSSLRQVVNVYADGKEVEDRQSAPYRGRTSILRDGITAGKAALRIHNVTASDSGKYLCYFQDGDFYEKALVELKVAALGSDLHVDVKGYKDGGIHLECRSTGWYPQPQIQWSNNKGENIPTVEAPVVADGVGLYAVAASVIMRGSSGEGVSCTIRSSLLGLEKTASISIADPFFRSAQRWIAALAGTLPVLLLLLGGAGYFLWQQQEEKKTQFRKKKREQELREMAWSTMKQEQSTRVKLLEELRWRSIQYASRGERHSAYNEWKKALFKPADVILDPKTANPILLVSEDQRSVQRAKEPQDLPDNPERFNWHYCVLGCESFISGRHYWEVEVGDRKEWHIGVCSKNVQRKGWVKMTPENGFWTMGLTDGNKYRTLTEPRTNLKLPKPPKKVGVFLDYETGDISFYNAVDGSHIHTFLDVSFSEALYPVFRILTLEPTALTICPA

This assay has as its target BTN3A expressed at the cell surface (human), O00481. As to the kind of experiment: cell-based or functional assay.
For the molecule B1, the Jurkat-Vy9Vo2 TCR MOP activation at 0.5 nM (fold-change to medium) turned out to be 5.3 and the Jurkat-Vy9Vo2 TCR MOP activation at 5 nM (fold-change to medium) is 4.8.

As for B2, the Jurkat-Vy9Vo2 TCR MOP activation at 0.5 nM (fold-change to medium) worked out at 6.4 and the Jurkat-Vy9Vo2 TCR MOP activation at 5 nM (fold-change to medium) amounted to 4.6.

B3 gave a Jurkat-Vy9Vo2 TCR MOP activation at 0.5 nM (fold-change to medium) of 1 and a Jurkat-Vy9Vo2 TCR MOP activation at 5 nM (fold-change to medium) of 1.2.

Molecule B4 registered a Jurkat-Vy9Vo2 TCR MOP activation at 0.5 nM (fold-change to medium) of 2.4 and a Jurkat-Vy9Vo2 TCR MOP activation at 5 nM (fold-change to medium) of 3.8.

On to B5, for which the Jurkat-Vy9Vo2 TCR MOP activation at 0.5 nM (fold-change to medium) worked out at 1.5 and the Jurkat-Vy9Vo2 TCR MOP activation at 5 nM (fold-change to medium) came out at 1.3.

B6 showed a Jurkat-Vy9Vo2 TCR MOP activation at 0.5 nM (fold-change to medium) of 1.3 and a Jurkat-Vy9Vo2 TCR MOP activation at 5 nM (fold-change to medium) of 1.4.

The molecule B7 had a Jurkat-Vy9Vo2 TCR MOP activation at 0.5 nM (fold-change to medium) of 1.1 and a Jurkat-Vy9Vo2 TCR MOP activation at 5 nM (fold-change to medium) of 1.7.

The molecule B8 showed a Jurkat-Vy9Vo2 TCR MOP activation at 0.5 nM (fold-change to medium) of 12.5; a Jurkat-Vy9Vo2 TCR MOP activation at 5 nM (fold-change to medium) of 11.7; a dose at which Jurkat-Vγ9Vδ2 TCR MOP activation was evident of 0.05 nM; an increase in CD107ab expression on Vγ9Vδ2 T cells co-cultured with SKOV3 cells, 0.1 nM of 1.9 fold.
